Patent US20250034271A1 (EUCURE BEIJING BIOPHARMA, published 2025)

Target: T1, Histidine-tagged human CD40 protein (hCD40-His) (human, UniProt P25942 21-193)
T1 construct: not shown: histidine tag
Test: SPR, Biacore T200; antibody on Protein A chip, hCD40-His injected; 1:1 fit
Procedure: The binding affinity of the anti-hCD40 antibodies were measured using surface plasmon resonance (SPR) using Biacore (Biacore, INC, Piscataway N.J.) T200 biosensor equipped with pre-immobilized Protein A sensor chips.
Anti-hCD40 antibodies were collected by transfecting CHO-S cells and then purified. The antibodies (1 μg/mL) were injected into Biacore T200 biosensor at 10 μL/min for about 24-33 seconds to achieve to a desired protein density (about 44-57 response units (RU)). […] Dissociation was monitored for 300 seconds. The chip was regenerated after the last injection of each titration with Glycine (pH 2.0, 30 μL/min for 12 seconds).

T1 sequence (P25942 21-193 limits assumed): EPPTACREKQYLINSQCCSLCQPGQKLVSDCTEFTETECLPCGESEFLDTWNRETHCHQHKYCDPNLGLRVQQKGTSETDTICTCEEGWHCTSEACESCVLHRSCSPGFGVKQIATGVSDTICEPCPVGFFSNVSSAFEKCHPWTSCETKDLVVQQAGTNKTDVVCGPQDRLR

Binder | Kd [nM] | koff [s⁻¹] | kon [M⁻¹ s⁻¹]
7F10-H1K4-IgG4 (antibody, V domains shown, Humanized) VH: EVQLVESGGGLVQPGGSLRLSCATSGFTFSDYYMYWVRQAPGKRLEWVAYISYGGDSTFYPDTVRGRFTISRDNAKNSLYLQMNSLRAEDTAVYYCARPAPSAHSYYLDYWGQGTLLTVSS VL: DIQMTQSTSSLSASVGDRVTITCRASQDISNYLNWYQQKPDGTVKLLIYYTSRLHSGLPSRFSGSGSGTDYTLTISSLQQEDIATYYCQQGKTLPFTFASGTKLEIK | 278 | 0.0321 | 115000
7F10-H2K2-IgG4 (antibody, V domains shown, Humanized) VH: EVQLVESGGGLVQPGGSLRLSCATSGFTFSDYYMYWVRQAPGKRLEWVAYISYGGDSTFYPDTVRGRFTISRDNAKNSLYLQMSSLKAEDTAVYYCARPAPSAHSYYLDYWGQGTLLTVSS VL: DIQMTQSPSSLSASVGDRVTITCRASQDISNYLNWYQQKPGGAVKLLIYYTSRLHSGLPSRFSGSGSGTDYTFTISSLQPEDIATYYCQQGKTLPFTFASGTKLEIK | 505 | 0.0534 | 106000
7F10-H3K1-IgG4 (antibody, V domains shown, Humanized) VH: EVKLVESGGGLVQPGGSLRLSCATSGFTFSDYYMYWVRQAPEKRLEWVAYISYGGDSTFYPDTVRGRFTISRDNAKNALYLQMSRLKAEDTAVYYCARPAPSAHSYYLDYWGQGTTLTVSS VL: DIQMTQSPSSLSASVGDRVTITCRASQDISNYLNWYQQKPGGAVKLLIYYTSRLHSGLPSRFSGSGSGTDFTFTISSLQPEDIATYYCQQGKTLPFTFASGTKLEIK | 430 | 0.0568 | 132000
7F10-H2K1-IgG4 (antibody, V domains shown, Humanized) VH: EVQLVESGGGLVQPGGSLRLSCATSGFTFSDYYMYWVRQAPGKRLEWVAYISYGGDSTFYPDTVRGRFTISRDNAKNSLYLQMSSLKAEDTAVYYCARPAPSAHSYYLDYWGQGTLLTVSS VL: DIQMTQSPSSLSASVGDRVTITCRASQDISNYLNWYQQKPGGAVKLLIYYTSRLHSGLPSRFSGSGSGTDFTFTISSLQPEDIATYYCQQGKTLPFTFASGTKLEIK | 540 | 0.065 | 120000
7F10-H2K4-IgG4 (antibody, V domains shown, Humanized) VH: EVQLVESGGGLVQPGGSLRLSCATSGFTFSDYYMYWVRQAPGKRLEWVAYISYGGDSTFYPDTVRGRFTISRDNAKNSLYLQMSSLKAEDTAVYYCARPAPSAHSYYLDYWGQGTLLTVSS VL: DIQMTQSTSSLSASVGDRVTITCRASQDISNYLNWYQQKPDGTVKLLIYYTSRLHSGLPSRFSGSGSGTDYTLTISSLQQEDIATYYCQQGKTLPFTFASGTKLEIK | 202 | 0.038 | 188000
7F10-H3K3-IgG4 (antibody, V domains shown, Humanized) VH: EVKLVESGGGLVQPGGSLRLSCATSGFTFSDYYMYWVRQAPEKRLEWVAYISYGGDSTFYPDTVRGRFTISRDNAKNALYLQMSRLKAEDTAVYYCARPAPSAHSYYLDYWGQGTTLTVSS VL: DIQMTQSTSSLSASVGDRVTITCRASQDISNYLNWYQQKPGGAVKLLIYYTSRLHSGLPSRFSGSGSGTDYTLTISSLQQEDIATYYCQQGKTLPFTFASGTKLEIK | 238 | 0.0314 | 132000
7F10-H3K2-IgG4 (antibody, V domains shown, Humanized) VH: EVKLVESGGGLVQPGGSLRLSCATSGFTFSDYYMYWVRQAPEKRLEWVAYISYGGDSTFYPDTVRGRFTISRDNAKNALYLQMSRLKAEDTAVYYCARPAPSAHSYYLDYWGQGTTLTVSS VL: DIQMTQSPSSLSASVGDRVTITCRASQDISNYLNWYQQKPGGAVKLLIYYTSRLHSGLPSRFSGSGSGTDYTFTISSLQPEDIATYYCQQGKTLPFTFASGTKLEIK | 380 | 0.0482 | 127000
7F10-H3K4-IgG4 (antibody, V domains shown, Humanized) VH: EVKLVESGGGLVQPGGSLRLSCATSGFTFSDYYMYWVRQAPEKRLEWVAYISYGGDSTFYPDTVRGRFTISRDNAKNALYLQMSRLKAEDTAVYYCARPAPSAHSYYLDYWGQGTTLTVSS VL: DIQMTQSTSSLSASVGDRVTITCRASQDISNYLNWYQQKPDGTVKLLIYYTSRLHSGLPSRFSGSGSGTDYTLTISSLQQEDIATYYCQQGKTLPFTFASGTKLEIK | 184 | 0.0274 | 149000
6A7-mHvKv-IgG4 (antibody, V domains shown, Chimeric; also called chimeric anti-hCD40 antibody 6A7-mHvKv-IgG4) VH: QVQLQQPGAELVKPGASVKLSCKASGYTFISYYIYWVKQRPGQGLEWIGGINPRNGGTNFNEKFKSKATLTVDKSSSTAYMQLSSLTSEDSAVYYCTRHGNGVYWGQGTTLTVSS VL: DVVMTQTPLSLPVSLGDQASISCRSSQSLLHSNGNTYLHWYLQKPGQSPNHLIYQVSNRFSGVPDRFSGSGSGTDFTLKISRVEAEDLGVYFCSQTTHVPWTFGGGTKLEIK | 2.6 | 0.000259 | 99400
6A7-H2K2-IgG4 (antibody, V domains shown, Humanized) VH: QVQLVQSGAEVKKPGASVKVSCKASGYTFISYYIYWVRQAPGQGLEWIGGINPRNGGTNFNEKFKSRATLTVDTSISTAYMELSRLRSEDTAVYYCARHGNGVYWGQGTTVTVSS VL: DVVMTQSPLSLPVTLGQPASISCRSSQSLLHSNGNTYLHWYQQRPGQSPNHLIYQVSNRFSGVPDRFSGSGSGTDFTLKISRVEAEDVGVYFCSQTTHVPWTFGGGTKVEIK | 189 | 0.00496 | 26300
6A7-H2K3-IgG4 (antibody, V domains shown, Humanized) VH: QVQLVQSGAEVKKPGASVKVSCKASGYTFISYYIYWVRQAPGQGLEWIGGINPRNGGTNFNEKFKSRATLTVDTSISTAYMELSRLRSEDTAVYYCARHGNGVYWGQGTTVTVSS VL: DVVMTQSPLSLPVTLGDPASISCRSSQSLLHSNGNTYLHWYQQRPGQSPNHLIYQVSNRFSGVPDRFSGSGSGTDFTLKISRVEAEDVGVYFCSQTTHVPWTFGGGTKLEIK | 111 | 0.00505 | 45300
6A7-H1K1-IgG4 (antibody, V domains shown, Humanized) VH: QVQLVQSGAEVKKPGASVKVSCKASGYTFISYYIYWVRQAPGQGLEWMGGINPRNGGTNFNEKFKSRVTLTVDTSISTAYMELSRLRSEDTAVYYCARHGNGVYWGQGTTVTVSS VL: DVVMTQSPLSLPVTLGQPASISCRSSQSLLHSNGNTYLHWFQQRPGQSPRHLIYQVSNRFSGVPDRFSGSGSGTDFTLKISRVEAEDVGVYYCSQTTHVPWTFGGGTKVEIK | 280 | 0.00571 | 20400
6A7-H3K1-IgG4 (antibody, V domains shown, Humanized) VH: QVQLVQSGAEVKKPGASVKVSCKASGYTFISYYIYWVRQAPGQGLEWIGGINPRNGGTNFNEKFKSRATLTVDTSISTAYMELSRLRSEDTAVYYCTRHGNGVYWGQGTTVTVSS VL: DVVMTQSPLSLPVTLGQPASISCRSSQSLLHSNGNTYLHWFQQRPGQSPRHLIYQVSNRFSGVPDRFSGSGSGTDFTLKISRVEAEDVGVYYCSQTTHVPWTFGGGTKVEIK | 20.8 | 0.000574 | 27600
6A7-H3K2-IgG4 (antibody, V domains shown, Humanized) VH: QVQLVQSGAEVKKPGASVKVSCKASGYTFISYYIYWVRQAPGQGLEWIGGINPRNGGTNFNEKFKSRATLTVDTSISTAYMELSRLRSEDTAVYYCTRHGNGVYWGQGTTVTVSS VL: DVVMTQSPLSLPVTLGQPASISCRSSQSLLHSNGNTYLHWYQQRPGQSPNHLIYQVSNRFSGVPDRFSGSGSGTDFTLKISRVEAEDVGVYFCSQTTHVPWTFGGGTKVEIK | 5.74 | 0.000371 | 64600
6A7-H2K1-IgG4 (antibody, V domains shown, Humanized) VH: QVQLVQSGAEVKKPGASVKVSCKASGYTFISYYIYWVRQAPGQGLEWIGGINPRNGGTNFNEKFKSRATLTVDTSISTAYMELSRLRSEDTAVYYCARHGNGVYWGQGTTVTVSS VL: DVVMTQSPLSLPVTLGQPASISCRSSQSLLHSNGNTYLHWFQQRPGQSPRHLIYQVSNRFSGVPDRFSGSGSGTDFTLKISRVEAEDVGVYYCSQTTHVPWTFGGGTKVEIK | 298 | 0.00708 | 23700
6A7-H4K1-IgG4 (antibody, V domains shown, Humanized) VH: QVQLVQSGAEVKKPGASVKLSCKASGYTFISYYIYWVKQAPGQGLEWIGGINPRNGGTNFNEKFKSRATLTVDTSISTAYMELSRLRSEDTAVYYCTRHGNGVYWGQGTTLTVSS VL: DVVMTQSPLSLPVTLGQPASISCRSSQSLLHSNGNTYLHWFQQRPGQSPRHLIYQVSNRFSGVPDRFSGSGSGTDFTLKISRVEAEDVGVYYCSQTTHVPWTFGGGTKVEIK | 23.9 | 0.000572 | 23900
6A7-H1K3-IgG4 (antibody, V domains shown, Humanized) VH: QVQLVQSGAEVKKPGASVKVSCKASGYTFISYYIYWVRQAPGQGLEWMGGINPRNGGTNFNEKFKSRVTLTVDTSISTAYMELSRLRSEDTAVYYCARHGNGVYWGQGTTVTVSS VL: DVVMTQSPLSLPVTLGDPASISCRSSQSLLHSNGNTYLHWYQQRPGQSPNHLIYQVSNRFSGVPDRFSGSGSGTDFTLKISRVEAEDVGVYFCSQTTHVPWTFGGGTKLEIK | 136 | 0.0039 | 28700
6A7-H1K2-IgG4 (antibody, V domains shown, Humanized) VH: QVQLVQSGAEVKKPGASVKVSCKASGYTFISYYIYWVRQAPGQGLEWMGGINPRNGGTNFNEKFKSRVTLTVDTSISTAYMELSRLRSEDTAVYYCARHGNGVYWGQGTTVTVSS VL: DVVMTQSPLSLPVTLGQPASISCRSSQSLLHSNGNTYLHWYQQRPGQSPNHLIYQVSNRFSGVPDRFSGSGSGTDFTLKISRVEAEDVGVYFCSQTTHVPWTFGGGTKVEIK | 187 | 0.00386 | 20600
6A7-H4K3-IgG4 (antibody, V domains shown, Humanized) VH: QVQLVQSGAEVKKPGASVKLSCKASGYTFISYYIYWVKQAPGQGLEWIGGINPRNGGTNFNEKFKSRATLTVDTSISTAYMELSRLRSEDTAVYYCTRHGNGVYWGQGTTLTVSS VL: DVVMTQSPLSLPVTLGDPASISCRSSQSLLHSNGNTYLHWYQQRPGQSPNHLIYQVSNRFSGVPDRFSGSGSGTDFTLKISRVEAEDVGVYFCSQTTHVPWTFGGGTKLEIK | 3.49 | 0.000373 | 107000
